Results as given in US20250352667A1.
Numbering of substitutions follows the chain as printed. Names may count otherwise.

Tests used:
[1] = target: KEAP1 (wild-type full-length), His-tagged (human) (UniProt Q14145); assay: AlphaScreen, all variants on one plate; optimal condition (19.2 nM NRF2), KEAP1 150 nM; the reference itself
[2] = target: KEAP1 (wild-type full-length), His-tagged (human) (UniProt Q14145); assay: AlphaScreen; 38.4 nM FLAG-NRF2, 150 nM His-KEAP1; Repeat 1 (same value as in Table 26)
[3] = target: KEAP1 (wild-type full-length), His-tagged (human) (UniProt Q14145); assay: AlphaScreen; 307.2 nM FLAG-NRF2, 150 nM His-KEAP1; signal against NRF2 only; control for I28V
[4] = target: KEAP1 (wild-type full-length), His-tagged (human) (UniProt Q14145); assay: AlphaScreen; NRF2 wt isoform 1 9.6 nM, KEAP1 150 nM; set as the 100 % reference for Q75R
[5] = target: KEAP1 (wild-type full-length), His-tagged (human) (UniProt Q14145); assay: AlphaScreen; 1228.8 nM FLAG-NRF2, 150 nM His-KEAP1; Rep 1; control for I86V
[6] = target: KEAP1 (wild-type full-length), His-tagged (human) (UniProt Q14145); assay: AlphaScreen; FLAG-NRF2 wt isoform 1 19.2 nM, His-KEAP1 150 nM; Rep 2; positive control for Q75R
[7] = target: KEAP1 (wild-type full-length), His-tagged (human) (UniProt Q14145); assay: AlphaScreen; 19.2 nM FLAG-NRF2, 150 nM His-KEAP1; Rep 2; control for I28V
[8] = target: KEAP1 (wild-type full-length), His-tagged (human) (UniProt Q14145); assay: AlphaScreen; 4.8 nM FLAG-NRF2, 150 nM His-KEAP1; Rep 2; control for I28V
[9] = target: KEAP1 (wild-type full-length), His-tagged (human) (UniProt Q14145); assay: AlphaScreen; 19.2 nM FLAG-NRF2, 150 nM His-KEAP1; signal against NRF2 only; control for I86V
[10] = target: KEAP1 (wild-type full-length), His-tagged (human) (UniProt Q14145); assay: AlphaScreen; FLAG-NRF2 wt isoform 1 38.4 nM, His-KEAP1 150 nM; Rep 2; positive control for I86V
[11] = target: KEAP1 (wild-type full-length), His-tagged (human) (UniProt Q14145); assay: AlphaScreen; 307.2 nM FLAG-NRF2, 150 nM His-KEAP1; signal against NRF2 only; control for I86V
[12] = target: KEAP1 (wild-type full-length), His-tagged (human) (UniProt Q14145); assay: AlphaScreen; FLAG-NRF2 wt isoform 1 2.4 nM, His-KEAP1 150 nM; Rep 2; positive control for Q75R
[13] = target: KEAP1 (wild-type full-length), His-tagged (human) (UniProt Q14145); assay: AlphaScreen; 9.6 nM FLAG-NRF2, 150 nM His-KEAP1; signal against NRF2 only
[14] = target: KEAP1 (wild-type full-length), His-tagged (human) (UniProt Q14145); assay: AlphaScreen; mean over 9.6, 19.2 and 38.4 nM NRF2; 150 nM His-KEAP1; against wild-type NRF2 isoform 1
[15] = target: KEAP1 (wild-type full-length), His-tagged (human) (UniProt Q14145); assay: AlphaScreen; 76.8 nM FLAG-NRF2, 150 nM His-KEAP1; Rep 2
[16] = target: KEAP1 (wild-type full-length), His-tagged (human) (UniProt Q14145); assay: AlphaScreen; 1228.8 nM FLAG-NRF2, 150 nM His-KEAP1; Rep 2
[17] = target: KEAP1 (wild-type full-length), His-tagged (human) (UniProt Q14145); assay: AlphaScreen; 2.4 nM FLAG-NRF2, 150 nM His-KEAP1; signal against NRF2 only
[18] = target: KEAP1 (wild-type full-length), His-tagged (human) (UniProt Q14145); assay: AlphaScreen; 614.4 nM FLAG-NRF2, 150 nM His-KEAP1; Rep 2
[19] = target: KEAP1 (wild-type full-length), His-tagged (human) (UniProt Q14145); assay: AlphaScreen; 19.2 nM FLAG-NRF2, 150 nM His-KEAP1; Rep 1
[20] = target: KEAP1 (wild-type full-length), His-tagged (human) (UniProt Q14145); assay: AlphaScreen; FLAG-NRF2 I86V 9.6 nM, His-KEAP1 150 nM; Rep 1
[21] = target: KEAP1 (wild-type full-length), His-tagged (human) (UniProt Q14145); assay: AlphaScreen; NRF2 I86V 38.4 nM, KEAP1 150 nM; signal against NRF2-only control
[22] = target: KEAP1 (wild-type full-length), His-tagged (human) (UniProt Q14145); assay: AlphaScreen; FLAG-NRF2 Q75R 76.8 nM, His-KEAP1 150 nM; Rep 1
[23] = target: KEAP1 (wild-type full-length), His-tagged (human) (UniProt Q14145); assay: AlphaScreen; FLAG-NRF2 Q75R 19.2 nM, His-KEAP1 150 nM; Rep 2
[24] = target: KEAP1 (wild-type full-length), His-tagged (human) (UniProt Q14145); assay: AlphaScreen; FLAG-NRF2 Q75R 307.2 nM, His-KEAP1 150 nM; Rep 1
[25] = target: KEAP1 (wild-type full-length), His-tagged (human) (UniProt Q14145); assay: AlphaScreen; FLAG-NRF2 Q75R 153.6 nM, His-KEAP1 150 nM; Rep 2
[26] = target: KEAP1 (wild-type full-length), His-tagged (human) (UniProt Q14145); assay: AlphaScreen; FLAG-NRF2 Q75R 19.2 nM, His-KEAP1 150 nM; Repeat 1
[27] = target: KEAP1 (wild-type full-length), His-tagged (human) (UniProt Q14145); assay: AlphaScreen; FLAG-NRF2 Q75R 9.6 nM, His-KEAP1 150 nM; Repeat 2

KEAP1 (wild-type full-length), His-tagged (human), sequence (Q14145 2-624 limits assumed): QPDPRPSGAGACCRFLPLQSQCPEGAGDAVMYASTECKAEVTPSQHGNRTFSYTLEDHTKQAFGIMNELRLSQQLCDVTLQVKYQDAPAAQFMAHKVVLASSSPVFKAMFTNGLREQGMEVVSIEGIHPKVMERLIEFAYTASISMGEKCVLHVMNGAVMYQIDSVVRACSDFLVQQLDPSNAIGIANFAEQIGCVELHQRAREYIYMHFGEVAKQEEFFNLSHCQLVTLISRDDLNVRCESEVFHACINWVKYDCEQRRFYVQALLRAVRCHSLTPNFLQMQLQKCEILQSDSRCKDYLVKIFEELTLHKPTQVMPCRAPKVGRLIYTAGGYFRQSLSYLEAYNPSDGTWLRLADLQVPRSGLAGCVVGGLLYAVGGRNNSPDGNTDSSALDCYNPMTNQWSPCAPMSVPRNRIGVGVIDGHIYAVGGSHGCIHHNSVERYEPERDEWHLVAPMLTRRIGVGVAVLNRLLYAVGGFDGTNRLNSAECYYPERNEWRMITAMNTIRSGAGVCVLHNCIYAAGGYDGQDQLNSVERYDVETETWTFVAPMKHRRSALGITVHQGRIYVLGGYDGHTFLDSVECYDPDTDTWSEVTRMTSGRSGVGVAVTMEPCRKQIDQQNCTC

B1: NRF2 isoform 1 (wild-type full-length), FLAG-tagged (protein)
chain: MMDLELPPPGLPSQQDMDLIDILWRQDIDLGVSREVFDFSQRRKEYELEKQKKLEKERQEQLQKEQEKAFFAQLQLDEETGEFLPIQPAQHIQSETSGSANYSQVAHIPKSDALYFDDCMQLLAQTFPFVDDNEVSSATFQSLVPDIPGHIESPVFIATNQAQSPETSVAQVAPVDLDGMQQDIEQVWEELLSIPELQCLNIENDKLVETTMVPSPEAKLTEVDNYHFYSSIPSMEKEVGNCSPHFLNAFEDSFSSILSTEDPNQLTVNSLNSDATVNTDFGDEFYSAFIAEPSISNSMPSPATLSHSLSELLNGPIDVSDLSLCKAFNQNHPESTAEFNDSDSGISLNTSPSVASPEHSVESSSYGDTLLGLSDSEVEELDSAPGSVKQNGPKTPVHSSGDMVQPLSPSQGQSTHVHDAQCENTPEKELPVSPGHRKTPFTKDKHSSRLEAHLTRDELRAKALHIPFPVEKIINLPVVDFNEMMSKEQFNEAQLALIRDIRRRGKNKVAAQNCRKRKLENIVELEQDLDHLKDEKEKLLKEKGENDKSLHLLKKQLSTLYLEVFSMLRDEDGKPYSPSEYSLQQTRDGNVFLVPKSKKPDVKKN
B1 gave a % Disruption in Binding [1] of 0%, an A-counts [2] of 2000 A-counts and a S/N [3] of 1.3. It also gave a Binding Percentage [4] of 100%, an A-counts [5] of 2930 A-counts and an A-counts (NRF2 plus KEAP1) [6] of 1480 A-counts. It also gave an A-counts [7] of 2000 A-counts, an A-counts [8] of 1160 A-counts and a S/N [9] of 4.1. The A-counts (NRF2 plus KEAP1) [10] was 2850 A-counts, the S/N [11] was 1.5 and the A-counts (NRF2 plus KEAP1) [12] was 429 A-counts.

B2: NRF2 isoform 1 (I28V full-length), FLAG-tagged (protein)
chain: B1 chain with I28V
B2 gave a S/N [13] of 3.4, an Avg. Reduction in Binding [14] of 30.2% and an A-counts [15] of 1500 A-counts. It also gave an A-counts [16] of 1030 A-counts, a S/N [17] of 2.2 and an A-counts [18] of 1210 A-counts. It also gave an A-counts [19] of 1730 A-counts.

B3: NRF2 isoform 1 (I86V full-length), FLAG-tagged (protein)
chain: B1 chain with I86V
Binder B3 has an A-counts (NRF2 plus KEAP1) [20] of 2730 A-counts and a S/N [21] of 2.9.

B4: NRF2 isoform 1 (Q75R full-length), FLAG-tagged (protein)
chain: B1 chain with Q75R
In the case of B4, the A-counts (NRF2 plus KEAP1) [22] is reported as 1110 A-counts, the A-counts (NRF2 plus KEAP1) [23] is reported as 1280 A-counts and the A-counts (NRF2 plus KEAP1) [24] is reported as 995 A-counts. The A-counts (NRF2 plus KEAP1) [25] was 991 A-counts, the A-counts (NRF2 plus KEAP1) [26] was 1300 A-counts and the A-counts (NRF2 plus KEAP1) [27] was 1090 A-counts.
